Test results reported in patent US20100092481A1 (INSTITUTE FOR RESEARCH IN BIOMEDICINE, published 2010).

Assays:
[1] = biological target: T1, hCMV gH, gL, UL128, UL130 and UL131A co-expressed in HEK293T cells (human cytomegalovirus, UniProt P12824 24-743; P16832 31-278; P16837 1-171; P16772 1-214); assay: cell cross-competition, 20x excess; competitor 8I21-biotin
T1 construct: whole, on cells; also called gH + gL + UL128 + UL130 + UL131A; gH/gL/UL128-130 complex

[2] = biological target: T1, hCMV gH, gL, UL128, UL130 and UL131A …; assay: cell cross-competition, 20x excess; competitor 2C12-biotin
[3] = biological target: T1, hCMV gH, gL, UL128, UL130 and UL131A …; assay: cell cross-competition, 20x excess; competitor 6G4-biotin
[4] = biological target: T1, hCMV gH, gL, UL128, UL130 and UL131A …; assay: cell cross-competition, 20x excess; competitor 4N10-biotin
[5] = biological target: T1, hCMV gH, gL, UL128, UL130 and UL131A …; assay: cell cross-competition, 20x excess; competitor 2F4-biotin
[6] = biological target: T1, hCMV gH, gL, UL128, UL130 and UL131A …; assay: cell cross-competition, 20x excess; competitor 5A2-biotin
[7] = biological target: T1, hCMV gH, gL, UL128, UL130 and UL131A …; assay: cell cross-competition, 20x excess; competitor 4I22-biotin
[8] = biological target: T2, hCMV UL130 and UL131A co-expressed in HEK293T cells (human cytomegalovirus, UniProt P16772 1-214); assay: cell-based or functional assay
[9] = biological target: T1, hCMV gH, gL, UL128, UL130 and UL131A …; assay: cell cross-competition, 20x excess; competitor 10F7-biotin
[10] = biological target: T2, hCMV UL130 and UL131A co-expressed in …; assay: cell-based or functional assay; remark: listed apart in the source
[11] = biological target: T1, hCMV gH, gL, UL128, UL130 and UL131A …; assay: cell cross-competition, 20x excess; competitor 1F11-biotin
[12] = biological target: T1, hCMV gH, gL, UL128, UL130 and UL131A …; assay: cell cross-competition, 20x excess; competitor 15D8-biotin
[13] = biological target: T1, hCMV gH, gL, UL128, UL130 and UL131A …; assay: cell cross-competition, 20x excess; competitor 8J16-biotin

T2 sequence (P16772 whole entry): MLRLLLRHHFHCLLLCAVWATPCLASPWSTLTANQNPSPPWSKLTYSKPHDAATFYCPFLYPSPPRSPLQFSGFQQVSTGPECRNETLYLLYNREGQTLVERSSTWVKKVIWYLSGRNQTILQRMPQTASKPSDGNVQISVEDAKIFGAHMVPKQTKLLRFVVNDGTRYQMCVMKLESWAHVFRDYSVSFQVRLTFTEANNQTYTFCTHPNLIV

Row | Binder | Inhibition of binding (%) [1] [%] | Inhibition of binding (%) [2] [%] | Inhibition of binding (%) [3] [%] | Inhibition of binding (%) [4] [%] | Inhibition of binding (%) [5] [%] | Inhibition of binding (%) [6] [%] | Inhibition of binding (%) [7] [%] | 50% Neutralization ARPE (hCMV VR1814) [8] [µg/mL] | 50% Neutralization MRC-9 (hCMV VR1814) [8] [µg/mL] | Inhibition of binding (%) [9] [%] | 90% Neutralization ARPE (hCMV VR1814) [10] [µg/mL] | 90% Neutralization MRC-9 (hCMV VR1814) [10] [µg/mL] | Inhibition of binding (%) [11] [%] | Inhibition of binding (%) [12] [%] | Inhibition of binding (%) [13] [%]
1 | 3G16 (antibody, V domains shown, human IgG mAb; also called 3G16-biotin) VH: QSALTQPASVSGSPGESITISCTGTISDVGAYNSVSWYQQHSGTAPELIIYDVTNRPAGVSSRFSGSKSGNTASLTISWLQSEDEAEYYCSSYTTSDTYVFGSGTQVTVL V domain: RAQLVQSAAEMKNPGASVKVSCEASGYTFTGYYVHWMRQAPGQGLEWMGWINPMTGATKSPQKFQGRVTMTRDTSTTATHIELTRLRSDDSAVFFCARGGPTSTRITGKRHFDLWGRGTLITVAS | 0 | 0 | 0 |  |  |  |  |  |  |  |  |  |  |  | 
2 | 10F7 (antibody, V domains shown, human IgG mAb; also called 10F7-biotin) VH: EVQLVESGGGLVQPGRSLRLSCTASGFTFGDYAMSWFRQAPGKGLEWVGFIRSKAYGGTTEYAASVKGRFTISRDDSKSIAYLQMNSLKTEDTAVYYCTRASSLLWLLNPQPNFDYWGQGTLVTVSS VL: SYVLTQPPSVSVAPGQTARITCGGNNIGSNNVHWYQQKPGQAPVLVVYDDSDRPSGIPERFSGSNSGNTATLTISRVEAGDEADYYCQVWDSSSDHPVFGGGTKLTVL | 0 | 0 | 0 | 0 | 100 | 0 | 100 | < 0.01 | ≤ 2 | 100 | 0.002 | > 10 | 100 | 0 | 
3 | 10P3 (antibody, V domains shown, human IgG mAb) VH: EVQLVESGGGLVRPGGSLRLSCAASGFTFHNYRMNWVRQAPGKGLEWVANIKQDGSEKSYVDSVRGRFTTSRDNSKNSLYLQINSLRAEDTAVYYCARGEGYTYGVVYSYSAMDVWGQGTTVIVSS VL: SYELTQPPSVSVSPGQTARITCSGNVLPNQYASWYQQKPGQAPVLVIYKDTERPSGIPGRFSGSSSGTTVTLTISGVQAEDEADYYCQSADSSGADYVFGTGTKVTVL | 0 | 0 | 0 |  | 0 |  | 0 | < 0.001 | > 2 |  | 0.0025 | > 10 | 0 | 0 | 
4 | 4N10 (antibody, V domains shown, human IgG mAb; also called 4N10-biotin) VH: QVQLVQSGAEVKKPGSSVRVSCKASGGTFSSYVIIWVRQAPGQGLEWMGGVIPIFDTVNYAQKFQGRVTITADESTSTAYMELSSLKSEDTAVYYCARGILAYCGGDCYNTPYGMDVWGQGTTVTVSS VL: DIQMTQSPSILSASVGDRVTITCRASQSISSWLAWYQQKPGKAPKLLIYKASSLEIGVPSRISGSGSGTEFTLTISSLQPDDFATYYCQQYNSSWTFGQGTKVEIK | 90 | 0 | 0 | 100 | 0 | 100 | 0 | < 0.001 | ≤ 2 | 0 | 0.02 | > 10 | 0 | 0 | 
5 | 15D8 (antibody, V domains shown, human IgG mAb; also called 15D8-biotin) VH: EVQLVQSGAEVKKPGESLKISCQASGYSFTNYWIAWVRQMPGKGLEWMGIIYPGDSDIKYSPSFRGQVTISADKSISNAFLQWRSLRASDTAMYYCARHAIRGDGFDYWGQGTLVTVSS VL: SYELTQPPSVSVSPGQTATITCSGDKLGEKYACWYQQKPGQSPVLVMYQDTKRPSGIPERFSGSNSGNTATLTISGTRAMDEADYYCQAWDTNTVIFGGGTKLTVL | 0 | 0 | 0 | 0 | 0 | 0 | 0 |  |  | 0 |  |  | 0 | 100 | 
6 | 8I21 (antibody, V domains shown, human IgG mAb; also called 8I21-biotin) VH: LVELVESGGGVVQPGRSLRLSCAASGFTFSSDGMHWVRQSPGRGLEWVAFISSDGSTPYYADSVKGRFTISRDNSKNTLYLQMNSLRAEDTAMYFCAKDWALFRWLRTFDHWGQGTLVTVSS VL: not shown | 100 | 0 | 0 | 90 | 0 | 95 | 0 |  |  |  |  |  | 0 | 0 | 
7 | 4I22 (antibody, V domains shown, human IgG mAb; also called 4I22-biotin) VH: QVQLVESGGGVVQPGRSLRLSCVASGFTFSSYAMHWVRQAPGKGLEWVAVISYDGDNKFYADSVKGRFRISRDTSKNTLYLEMNSLRAADTAIYYCAREELVGLMPPYYNYGLDVWGQGTTVTVSS VL: QSVLTQPPSVSAAPGQKVTISCSGSNSNIGNNYVSWYQQLPGRAPKLLIYDNDHRPSGIPDRFSGSKSGTSATLVITGLQTGDEADYYCETWDTSLSAAVVFGGGTKLTVL | 0 | 0 |  | 0 | 100 | 0 | 100 | < 0.01 | > 2 | 100 | 0.0015 | > 10 | 100 |  | 0
8 | 8L13 (antibody, V domains shown, human IgG mAb) VH: QVQLLESGGGVVQPGRSLRLSCAASGFTFSNYGMHWVRQAPGKGLEWVAVIWNDGSKKYYAESVKGRFTISRDNSKNTVYLQMNSLRAEDTAVYYCARDEGVQMVFAMPDYGMDVWGQGTTVTVSS VL: SYELTQPPSVSVSPGQTASITCSGDKLGDKFACWYQQRPGQSPILVIYQDSKRPSGIPERFSGSNSGNTATLTIRGTQAMDEADYYCQAWDSSTAHYVFGTGTKVTVL |  |  |  |  |  |  |  | < 0.01 | > 2 | 100 | 0.001 | > 10 | 100 |  | 
